± gives the uncertainty stated by the source.
Experiment: amyloid nucleation score (Sup35N fusion, yeast selection) (log enrichment); library NNK2; higher = more nucleation; inactive = no reads after selection
Summary of the method: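 Sup35N fusions to peptides of 20 random codons were expressed in psi-negative yeast, induced 24 hours with 100 μM copper sulfate, and grown 7 days at 30°C on medium lacking adenine and uracil. Input and output plasmid inserts were sequenced by Illumina. The nucleation score is the DiMSum log enrichment of output over input reads, centred on the mode score of non-aggregating sequences. Sequences with under 100 input reads were excluded.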

Work on CMFPSVCQPLTGMTVYGNST yielded an amyloid nucleation score of -0.084 ± 0.48.

EFIEYTSFYWWNLLRLGVHS showed an amyloid nucleation score of -0.61 ± 0.23.

For RVPTVLFFLIVDFSCPPFSC, the amyloid nucleation score was “inactive”.

Substance LNRLCRRVCRSINDTIAIRE has an amyloid nucleation score of -0.157 ± 0.26.

For LYKSSIA, the amyloid nucleation score was -2.08 ± 0.49.

TLVHSKF gave an amyloid nucleation score of 3.01 ± 0.089.

In the case of RSRARSWFLDKDMLLSKDRA, the amyloid nucleation score is reported as “inactive”.

Work on VFLLTLRCCWEFVLCADGP yielded an amyloid nucleation score of 1.29 ± 0.36.

For YWKVFFKAGWVVQSSAGMSA, the amyloid nucleation score was 4.64 ± 0.068.

Substance YYLVV has an amyloid nucleation score of -0.614 ± 0.56.

Work on CGCHCVYSPYYCFLTYWCAN yielded an amyloid nucleation score of -0.542 ± 0.76.

Substance VNLLLMVWRGLLLARTGRSG has an amyloid nucleation score of 1.96 ± 0.11.

PLDGEIRREHVLAYEE showed an amyloid nucleation score of -0.454 ± 0.48.

For LFRCIKDMAY, the amyloid nucleation score was 0.202 ± 0.51.

For WLICQSIRLLAKNFLLSDRV, the amyloid nucleation score was 0.019 ± 1.1.

Substance PLHRWLQDR has an amyloid nucleation score of -0.037 ± 0.79.

For NVHRRMSEYVCVDRWEEWVR, the amyloid nucleation score was 0.811 ± 0.67.

LAFPCFRVSGYESYGFVRKL gave an amyloid nucleation score of 0.436 ± 0.31.

With ENGTLTIYMVAL the amyloid nucleation score was 4.39 ± 0.075.

Work on ICGYEACNNIGP yielded an amyloid nucleation score of -1.12 ± 0.62.

Substance MNRYSKIVSQFVLAVDSTYF has an amyloid nucleation score of 0.433 ± 0.74.

Work on FKSLVSMVENDWMS yielded an amyloid nucleation score of -0.855 ± 0.44.

In the case of MIDRE, the amyloid nucleation score is reported as 0.83 ± 0.2.

For VKEVRLPGTRILGRLAGSFR, the amyloid nucleation score was “inactive”.

In the case of CCWRSNSRNTNVIPNLSLFR, the amyloid nucleation score is reported as 3.94 ± 0.04.

RAIFR gave an amyloid nucleation score of -0.686 ± 0.56.

With RMFWLIVQLGGSFDRLYGFR the amyloid nucleation score was 1.21 ± 0.45.

For GCQGVEGSESEQIDQIENWA, the amyloid nucleation score was 0.978 ± 0.74.

In the case of ITYNIEISMRDF, the amyloid nucleation score is reported as 4.32 ± 0.11.

Substance DVGSCVRGYTGQSKNLWTYG has an amyloid nucleation score of 0.028 ± 0.79.

Substance SEHLTCLWCLW has an amyloid nucleation score of 9.924 ± 0.064.

For IYFESPPTRWGGYVADNCEY, the amyloid nucleation score was -1.36 ± 0.76.

With NKLPDSFRSALSFY the amyloid nucleation score was “inactive”.

CNWLYF showed an amyloid nucleation score of 0.395 ± 0.8.

With FGWGN the amyloid nucleation score was 0.09 ± 0.51.

With RYINWLQYECNTLCAVDKSL the amyloid nucleation score was -0.436 ± 0.76.

Work on TWTLQQSVLVSEKNAKGRVT yielded an amyloid nucleation score of 3.98 ± 0.078.

SRVWFVNPAPYPADTSELAK gave an amyloid nucleation score of 0.509 ± 0.8.

Work on VLSVSWYAYCVSMMFIKNWA yielded an amyloid nucleation score of 0.697 ± 0.19.

Work on WHLVGRRSID yielded an amyloid nucleation score of -0.336 ± 0.76.

Work on LFGYGQEDGQWCGDEFETVK yielded an amyloid nucleation score of 0.769 ± 0.26.

Work on CTFSRMSVFACILANQSVFY yielded an amyloid nucleation score of 7.861 ± 0.038.

TTHLLFLFLALKNNPRTILT gave an amyloid nucleation score of -0.294 ± 1.1.

Work on QQLLSMLLFNFQYGCARLYC yielded an amyloid nucleation score of 0.072 ± 0.44.

FRIYA showed an amyloid nucleation score of 0.388 ± 0.29.

Substance LASTDTWHCVGGEFHKSA has an amyloid nucleation score of -0.571 ± 0.28.

Substance ALPKFSNNYLYEFLWFSRYL has an amyloid nucleation score of -0.538 ± 0.76.

NFSVNCLYNWARYACFLKGM gave an amyloid nucleation score of 1.77 ± 0.12.

LFLRAHILGTVTCIRDFAPG showed an amyloid nucleation score of 1.14 ± 0.18.

CPVAQYQG showed an amyloid nucleation score of -0.308 ± 0.21.

SYCTR showed an amyloid nucleation score of -0.645 ± 0.56.

For LCWPIFNFVFVSNPMLKLRL, the amyloid nucleation score was “inactive”.

Substance IHIWGSLSIDIEFVCGRQAK has an amyloid nucleation score of 1.99 ± 0.27.

LCGLSTLLFFKMDV gave an amyloid nucleation score of 0.716 ± 0.6.

For TFDFDNVAVYYALSGTGDSW, the amyloid nucleation score was -0.516 ± 0.34.

Work on FSVMMLMAVLMGTKIGVTEN yielded an amyloid nucleation score of 4.19 ± 0.087.

For QVWPLCLVAGSSFGRRGVTG, the amyloid nucleation score was 1.18 ± 0.29.

With LGQVTDLSILCSSDQSLMVC the amyloid nucleation score was -0.075 ± 0.26.

IKYFY gave an amyloid nucleation score of -0.939 ± 0.49.

In the case of WFMNSNVLHYM, the amyloid nucleation score is reported as 0.27 ± 0.64.

RNRRVWM gave an amyloid nucleation score of -0.003 ± 0.41.

VHLVSLSLNKTLYDFLTGMG showed an amyloid nucleation score of -0.178 ± 0.35.

For FFYQVWGNN, the amyloid nucleation score was 2.26 ± 0.11.

In the case of SCTPGLHQGCRCSVLLWEHR, the amyloid nucleation score is reported as 0.681 ± 0.47.

Work on RRRIWATM yielded an amyloid nucleation score of -0.12 ± 0.31.

Substance NCFVLVRALTYCLGNSR has an amyloid nucleation score of 5.18 ± 0.1.

With YRQMIRDYWIEKQSLHIRAD the amyloid nucleation score was 0.27 ± 0.56.

In the case of GLNVFCEKYISFKVMGIVER, the amyloid nucleation score is reported as 5.24 ± 0.069.

Substance CGLKDTTKLAVDVTPQNM has an amyloid nucleation score of 0.908 ± 0.3.

Work on CNCQYHSVWIT yielded an amyloid nucleation score of 0.392 ± 0.26.

Work on TVHCGMQWWLVARRPRNEAQ yielded an amyloid nucleation score of 1.25 ± 0.38.

SSNVK showed an amyloid nucleation score of 0.685 ± 0.4.

With QLWMTQTRTPSSKIRSKP the amyloid nucleation score was 0.641 ± 0.74.

In the case of DNCRYVKRSSYSRVCAHYKS, the amyloid nucleation score is reported as -0.627 ± 0.41.

In the case of LTSGVHCHKRTVHD, the amyloid nucleation score is reported as -0.263 ± 1.1.

For PKPLVGMLCCHSMTRGKVTL, the amyloid nucleation score was 3.28 ± 0.07.

In the case of FENIDGWRLFIIARRRAIGG, the amyloid nucleation score is reported as -1 ± 1.

Substance YSGTWLMVHKNLMVRKKLVP has an amyloid nucleation score of 0.499 ± 0.38.

For HIIPEYRVFLLLFHDDGAGF, the amyloid nucleation score was “inactive”.

LSSEVISSSHALQKTSICRF gave an amyloid nucleation score of 2.72 ± 0.13.

In the case of MRGVTLYDYFDGIRIWRPLR, the amyloid nucleation score is reported as 3.76 ± 0.12.

Work on DFDRSMRIARDNKRYGPVLV yielded an amyloid nucleation score of -0.166 ± 1.1.

Substance LYQVRGTY has an amyloid nucleation score of 0.353 ± 0.22.

Substance HNNFYPA has an amyloid nucleation score of -0.552 ± 0.35.

IYGAMCLCP showed an amyloid nucleation score of -0.005 ± 0.63.

For RKVTAVHLRHPP, the amyloid nucleation score was 2.2 ± 0.15.

For ISIFFVMLLMYRMFGYVECA, the amyloid nucleation score was 0.856 ± 0.5.

GYLLGSDSGDGGPFVIERIK showed an amyloid nucleation score of 0.687 ± 0.38.

For DKYSIVSSGPYMSNKSLVRR, the amyloid nucleation score was -0.109 ± 0.79.

Substance FGMSCWFLFFASQFSVTNNC has an amyloid nucleation score of -1.51 ± 0.76.

For YGRCNGLSGCQRGSCSREGG, the amyloid nucleation score was 0.483 ± 0.46.

With KGSSSWTLPVYSLELSLV the amyloid nucleation score was -0.731 ± 0.79.

In the case of YSGFI, the amyloid nucleation score is reported as “inactive”.

Substance NFSFRLYLLLETSIMYIGKT has an amyloid nucleation score of -1.3 ± 0.38.

With EFSFHSWQLVTSCQEECCLD the amyloid nucleation score was “inactive”.

In the case of SINTAVSCFMAGICNGHRSE, the amyloid nucleation score is reported as 8.246 ± 0.061.

Work on TNCINM yielded an amyloid nucleation score of 5.49 ± 0.055.

GVDDARTTKAGNWYSVRKGQ gave an amyloid nucleation score of 1.64 ± 0.41.

Work on KKLYFWINAHNRELTLKTWV yielded an amyloid nucleation score of 0.226 ± 0.54.

Work on GHIFSRHVKGQLHGWEEDGP yielded an amyloid nucleation score of 0.058 ± 1.

With HVMNGCGLYGQGSSRYYQTV the amyloid nucleation score was 0.957 ± 0.26.

For NRKLWVYIFSELSDDGLQFR, the amyloid nucleation score was “inactive”.

Substance RNYRIETSSNVIKV has an amyloid nucleation score of 0.292 ± 0.65.

TTDRTDCLSFQLNFTDMKRG showed an amyloid nucleation score of 6.08 ± 0.073.

CLSCGLRTEDLYWDTRICSD showed an amyloid nucleation score of 1.18 ± 0.29.

Work on AFCWTLWQYLGFS yielded an amyloid nucleation score of 1.35 ± 0.16.

For YHFTLGCNSEGCR, the amyloid nucleation score was -0.668 ± 0.24.

Substance SEWDLRVLTWYMWLFVPLVQ has an amyloid nucleation score of -0.477 ± 0.39.

Substance SWFSSNFFFY has an amyloid nucleation score of 5.27 ± 0.058.

For VNWIKGKGRLPPFHGIDCWW, the amyloid nucleation score was -0.139 ± 0.63.

SGHGLWLDAWCRLLDNRGYL showed an amyloid nucleation score of -0.403 ± 0.44.

With HCRSIVWSRYFLMNPLN the amyloid nucleation score was -0.029 ± 0.61.

In the case of SRSSG, the amyloid nucleation score is reported as 5.17 ± 0.058.

VFPMNELMASTVNKA showed an amyloid nucleation score of 6.274 ± 0.033.

With RRGGDKVIISEHV the amyloid nucleation score was -0.757 ± 0.45.

For QKWVF, the amyloid nucleation score was -0.76 ± 0.31.

SRLMCNNVTSLLVFVFIGHK gave an amyloid nucleation score of -0.337 ± 0.74.

For YSSMGDNSRVRSFFVAVAGG, the amyloid nucleation score was “inactive”.

KWVVKMDVGCVPSQTRRGSW gave an amyloid nucleation score of 1.05 ± 0.4.

SMFNCNWYCGCCMCNLGCLA showed an amyloid nucleation score of 7.334 ± 0.035.

LIVKLANTGRSQHHIRSWLS gave an amyloid nucleation score of -0.212 ± 0.38.

With SVKRHPFRTVKLGVSVLLWV the amyloid nucleation score was 1 ± 0.18.

In the case of GNVECS, the amyloid nucleation score is reported as -0.463 ± 0.45.

With FYKREVIFVLRLFFTVKQGR the amyloid nucleation score was -1.73 ± 1.1.

For NLIESWTVYCIGLGG, the amyloid nucleation score was “inactive”.

For SNVSKYTKRGDM, the amyloid nucleation score was -0.184 ± 0.33.

Substance YLHLSQTQWLGLIFNRRSFD has an amyloid nucleation score of 3.62 ± 0.068.

Work on WCGREVNLHALLCKIDRLTI yielded an amyloid nucleation score of 0.598 ± 0.49.

Reference: the supplement of paper PMC12042874
